Results published in PMC10491252 (bioRxiv, 2023).
Residue numbers refer to the chain shown, from its start. Names may count otherwise. “And” between values parts separate entries of the source, which are not always exact repeats. Equal entries are not always repeated.

Tests used:
[1] = molecular target: bone morphogenetic protein 6 (BMP6) (UniProt P22004)
ERFE CLR*ΔC1Q (human) [2] = molecular target: ERFE CLR*ΔC1Q (human) (UniProt Q4G0M1); assay: non-reducing SDS-PAGE
ERFE CLR*ΔC1Q (human) [3] = molecular target: ERFE CLR*ΔC1Q (human) (UniProt Q4G0M1); assay: AUC
[4] = molecular target: ERFE CLR* (center PGP of the collagen-like repeat mutated to SSS) (human) (UniProt Q4G0M1); assay: non-reducing SDS-PAGE
[5] = molecular target: ERFE CLR* (center PGP of the collagen-like repeat mutated to SSS) (human) (UniProt Q4G0M1); assay: AUC
[6] = molecular target: bone morphogenetic protein 6 (BMP6) (UniProt P22004); remark: listed apart in the source
[7] = molecular target: T1, bone morphogenetic protein 6 (BMP6) (UniProt P22004 375-513); assay: cell-based or functional assay
T1 sequence: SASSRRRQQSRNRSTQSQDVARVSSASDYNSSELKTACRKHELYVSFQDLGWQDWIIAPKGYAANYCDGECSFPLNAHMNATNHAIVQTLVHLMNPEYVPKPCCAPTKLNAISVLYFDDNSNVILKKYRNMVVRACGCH

[8] = molecular target: bone morphogenetic protein 2 (BMP2) (UniProt P12643 283-396); assay: cell-based or functional assay
[9] = molecular target: T2, bone morphogenetic protein 7 (BMP7) (UniProt P18075 293-431); assay: cell-based or functional assay
T2 sequence: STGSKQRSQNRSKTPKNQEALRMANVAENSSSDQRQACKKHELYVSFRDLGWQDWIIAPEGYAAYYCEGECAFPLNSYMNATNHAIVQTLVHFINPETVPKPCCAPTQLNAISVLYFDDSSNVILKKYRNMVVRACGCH

[10] = molecular target: T3, growth differentiation factor 5 (GDF5) (UniProt P43026 382-501); assay: cell-based or functional assay
T3 sequence: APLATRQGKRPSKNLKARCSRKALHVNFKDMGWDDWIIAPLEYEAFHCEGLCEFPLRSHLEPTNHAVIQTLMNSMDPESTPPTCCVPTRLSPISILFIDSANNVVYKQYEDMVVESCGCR

AUC [11] = molecular target: the molecule itself; assay: AUC
[12] = molecular target: T1, bone morphogenetic protein 6 (BMP6); assay: cell-based or functional assay; remark: listed apart in the source
non-reducing SDS-PAGE = molecular target: the molecule itself; assay: non-reducing SDS-PAGE
AUC [13] = molecular target: the molecule itself; assay: AUC; remark: listed apart in the source

Chain of bone morphogenetic protein 2 (BMP2) (P12643 283-396): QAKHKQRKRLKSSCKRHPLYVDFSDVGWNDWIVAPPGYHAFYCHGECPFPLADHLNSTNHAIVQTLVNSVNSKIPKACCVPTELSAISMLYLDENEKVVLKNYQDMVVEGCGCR

ERFE CLR*ΔC1Q (from UniProt Q4G0M1 44-207) (domain or fragment)
IC50 of inhibition of 2.5nM BMP6, luciferase reporter in BRITER cells [1]: 27 nM | stoichiometry N (ERFE CLR*ΔC1Q (human) [2]): 2 | percent of the protein as dimer (ERFE CLR*ΔC1Q (human) [3]): 38% | percent of the protein as monomer (ERFE CLR*ΔC1Q (human) [3]): 61% | stoichiometry N (ERFE CLR*ΔC1Q (human) [3]): 2

ERFE CLR* (center PGP of the collagen-like repeat mutated to SSS) (from UniProt Q4G0M1 44-354) (natural protein)
IC50 of inhibition of 2.5nM BMP6, luciferase reporter in BRITER cells [1]: 6.1 nM | stoichiometry N [4]: 2 | stoichiometry N [5]: 3

B1: ERFE D90A (natural protein)
chain: PPPGNELPRGPGESRAGPAARPPEPTAERAHSVDPRDAWMLFVRQSAKGVNGKKRSRGKAKKLKFGLPGPPGPPGPQGPPGPIIPPEALLKEFQLLLKGAVRQRERAEPEPCTCGPAGPVAASLAPVSATAGEDDDDVVGDVLALLAAPLAPGPRAPRVEAAFLCRLRRDALVERRALHELGVYYLPDAEGAFRRGPGLNLTSGQYRAPVAGFYALAATLHVALGEPPRRGPPRPRDHLRLLICIQSRCQRNASLEAIMGLESSSELFTISVNGVLYLQMGQWTSVFLDNASGCSLTVRSGSHFSAVLLGV
IC50 of inhibition of BMP6, luciferase reporter in BRITER cells [6]: 13 nM

B2: ERFE N94A (natural protein)
chain: B1 chain with A47D, N51A
IC50 of inhibition of BMP6, luciferase reporter in BRITER cells [6]: 21 nM

B3: erythroferrone (ERFE), wild type, N-terminally flag-tagged hERFE residues 44-354 (natural protein)
chain: B1 chain with A47D
IC50 of ERFE inhibition of 2.5nM BMP6, BRE-luciferase reporter in BRITER cells [7]: 5.2 nM | IC50 of ERFE inhibition of 2.5nM BMP2, BRE-luciferase reporter in BRITER cells [8]: 170 nM | IC50 of ERFE inhibition of 2.5nM BMP7, BRE-luciferase reporter in BRITER cells [9]: 8.9 nM | IC50 of ERFE inhibition of 2.5nM GDF5, BRE-luciferase reporter in BRITER cells [10]: 130 nM | stoichiometry N (AUC [11]): 3 and 6

B4: ERFE Cys* (Cys155, 157 and 208 mutated to serines) (natural protein)
chain: B1 chain with A47D, C112S, C114S, C165S
IC50 of inhibition of 2.5nM BMP6, luciferase reporter in BRITER cells [12]: 8.7 nM | stoichiometry N (AUC [11]): 3

B5: ERFE ΔC1Q (stop codon at C208, entire C1Q domain removed) (domain or fragment)
chain: PPPGNELPRGPGESRAGPAARPPEPTAERAHSVDPRDAWMLFVRQSDKGVNGKKRSRGKAKKLKFGLPGPPGPPGPQGPPGPIIPPEALLKEFQLLLKGAVRQRERAEPEPCTCGPAGPVAASLAPVSATAGEDDDDVVGDVLALLAAPLAPGPRAPRVEAAFL
IC50 of inhibition of 2.5nM BMP6, luciferase reporter in BRITER cells [12]: 7.8 nM | stoichiometry N (non-reducing SDS-PAGE): 2 | stoichiometry N (AUC [13]): 3

B6: ERFE Cys*ΔC1Q (domain or fragment)
chain: B5 chain with C112S, C114S
IC50 of inhibition of 2.5nM BMP6, luciferase reporter in BRITER cells [12]: 97 nM | stoichiometry N (AUC [13]): 3
